Consider 19 substances from PMC9709071.

“And” between values parts separate entries of the source, which are not always exact repeats. Identical values can stand only once.

The target of test [1] is Fc-scTL1A (TL1W14) (human) (UniProt O95150). Briefly: SEC-MALS; Waters BEH SEC column, 25 °C, PBS pH 7.4, 5 µg of sample.
For test [2], the target named is Recombinant DR3-Fc (UniProt Q93038). Briefly: ELISA; DR3-Fc immobilised non-specifically on Maxisorp plates (overnight, 4 °C), casein block; TL1A added in 3-fold dilutions, overnight 4 °C; bound TL1A detected with polyclonal rabbit anti-human TL1A-biotin and streptavidin-HRP; concentrations normalised to TL1A trimers; triplicate. Background: An ELISA detects its analyte on a solid surface through an enzyme-linked reagent.

The target is the same in test [3]. Briefly: ELISA; receptor (DR3-Fc; DcR3) immobilised on Maxisorp plates, TL1A variant titrated in 3-fold dilutions, overnight 4 °C, detected with anti-human TL1A-biotin and streptavidin-HRP; concentrations normalised to TL1A trimer; triplicate.
A further test addresses DcR3 (TNFRSF6B) (UniProt O95407). Briefly: ELISA; TL1A variants on DcR3; who was immobilised is not told for DcR3; triplicate.
The next test addresses DcR3 (UniProt O95407). Briefly: ELISA; receptor (DR3-Fc; DcR3) immobilised on Maxisorp plates, TL1A variant titrated in 3-fold dilutions, overnight 4 °C, detected with anti-human TL1A-biotin and streptavidin-HRP; concentrations normalised to TL1A trimer; triplicate.
The target in test [4] is HSA-scTL1A (TL1W15) (human) (UniProt O95150). Briefly: ELISA; reversed format: TL1A molecules immobilised, DR3 titrated.
Test [5] has as its target Fc-scTL1A (TL1W14) (human) (UniProt O95150). Described as above.
Target sequence in this assay (O95150 other isoform, or with tags, fused parts or gaps): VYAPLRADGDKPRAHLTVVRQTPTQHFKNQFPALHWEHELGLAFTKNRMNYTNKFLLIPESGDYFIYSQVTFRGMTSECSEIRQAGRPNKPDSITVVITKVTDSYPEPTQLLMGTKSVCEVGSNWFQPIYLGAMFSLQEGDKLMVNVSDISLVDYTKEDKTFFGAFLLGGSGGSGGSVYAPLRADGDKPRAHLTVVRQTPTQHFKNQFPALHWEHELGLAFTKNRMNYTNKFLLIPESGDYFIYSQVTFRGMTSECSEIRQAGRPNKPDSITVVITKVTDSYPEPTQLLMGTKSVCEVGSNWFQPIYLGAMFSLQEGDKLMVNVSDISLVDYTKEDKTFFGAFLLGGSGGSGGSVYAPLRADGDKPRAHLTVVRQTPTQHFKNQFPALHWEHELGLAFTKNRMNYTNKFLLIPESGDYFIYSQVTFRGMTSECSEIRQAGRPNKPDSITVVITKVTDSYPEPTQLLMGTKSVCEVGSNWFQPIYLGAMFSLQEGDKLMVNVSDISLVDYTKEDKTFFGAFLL

DcR3 (TNFRSF6B), sequence (O95407 30-300): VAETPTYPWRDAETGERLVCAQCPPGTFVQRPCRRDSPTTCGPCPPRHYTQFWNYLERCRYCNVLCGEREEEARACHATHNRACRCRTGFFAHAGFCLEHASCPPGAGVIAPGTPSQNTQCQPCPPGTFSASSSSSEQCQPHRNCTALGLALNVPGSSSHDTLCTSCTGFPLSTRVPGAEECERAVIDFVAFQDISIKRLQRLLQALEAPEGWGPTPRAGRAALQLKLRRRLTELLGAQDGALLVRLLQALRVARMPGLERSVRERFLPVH
DcR3, sequence (O95407 30-300): as above
Recombinant DR3-Fc, sequence (Q93038 25-199): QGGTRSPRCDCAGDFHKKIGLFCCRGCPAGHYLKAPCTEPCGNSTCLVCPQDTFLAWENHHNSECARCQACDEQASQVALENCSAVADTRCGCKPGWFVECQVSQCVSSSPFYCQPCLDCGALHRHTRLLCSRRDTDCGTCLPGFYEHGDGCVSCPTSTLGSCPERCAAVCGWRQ
HSA-scTL1A (TL1W15) (human), sequence (O95150 other isoform, or with tags, fused parts or gaps): as the sequence (O95150 other isoform, or with tags, fused parts or gaps) above

In general, stoichiometry N refers to a count of units in the complex or per binding partner. One may read the EC50 as the midpoint of the concentration-response curve. In the test with mouse DR3 (mouse), “Fc-scTL1A (TL1W14) (from UniProt O95150 84-251; O95150 84-251; O95150 84-251) (Fc fusion)” registered an IFNg in C57BL/6 mice 6 h after Fc-scTL1A (i.p.) with anti-CD3 antibody (i.v.) of 750 pg/mL. The stoichiometry N in test [1] is 2 and 4. The EC50 worked out at 9.7 nM with Recombinant DR3-Fc [2], 26.2 nM with Recombinant DR3-Fc [3] and 6.5 nM with DcR3 (TNFRSF6B).

On to “TL1W45 (E190F) (from UniProt O95150 1-251) (ligand)”, for which the EC50 in the test with Recombinant DR3-Fc [2] was determined as 31.4 nM; with DcR3 (TNFRSF6B) it was 21.2 nM.

For Fc-His-TL1A (TL1W61) (complex), in the test with Recombinant DR3-Fc [2], the 50% effective concentration (EC50) was found to be 10.2 nM.

As for “TL1W122 (N207F) (from UniProt O95150 1-251) (ligand)”, the EC50 in the test with Recombinant DR3-Fc [2] is 30.2 nM; with DcR3, 10.6 nM; with DcR3 (TNFRSF6B), 58.5 nM.

Turning to “TL1W109 (S187L) (from UniProt O95150 1-251) (ligand)”, the concentration giving a half-maximal response (EC50) in the test with Recombinant DR3-Fc [2] turned out to be 17.7 nM; with DcR3 it was 15.5 nM; with DcR3 (TNFRSF6B), 85.5 nM.

For the substance “His-scTL1A TL1W19 (from UniProt O95150 84-251; O95150 84-251; O95150 84-251) (ligand)”, the EC50 with Recombinant DR3-Fc [2] came out at 27.3 nM.

In the case of “TL1W92 (M158Y) (from UniProt O95150 1-251) (ligand)”, the EC50 with Recombinant DR3-Fc [2] worked out at 16.6 nM; with DcR3, 12.6 nM; with DcR3 (TNFRSF6B), 69.2 nM.

For the substance “HSA-scTL1A (TL1W15) (from UniProt O95150 84-251; O95150 84-251; O95150 84-251) (ligand)”, the concentration for a half-maximal effect (EC50) with Recombinant DR3-Fc [2] amounted to 29.2 nM.

As to “TL1W95 (Q167A) (from UniProt O95150 1-251) (ligand)”, the concentration giving a half-maximal response (EC50) with Recombinant DR3-Fc [2] amounted to 17.1 nM; with DcR3, 32 nM; with DcR3 (TNFRSF6B) it was 176 nM.

Consider “Recombinant DR3-Fc (from UniProt Q93038 25-199) (Fc fusion)”, for which the half-maximal effective concentration (EC50) in test [4] was determined as 3.8 nM; in test [5], 1.5 nM.

Regarding “TL1W38 (L123K) (from UniProt O95150 1-251) (ligand)”, the EC50 with Recombinant DR3-Fc [2] is 29.4 nM; with Recombinant DR3-Fc [3] it was 29.5 nM; with DcR3 (TNFRSF6B) it was 24.7 nM.

Take “TL1W123 (N207S) (from UniProt O95150 1-251) (ligand)”: the concentration giving a half-maximal response (EC50) in the test with DcR3 is 8.6 nM; in the test with Recombinant DR3-Fc [3] it was 26.8 nM.

Take “TL1W80 (K111A) (from UniProt O95150 1-251) (ligand)”: the EC50 was 30 nM with Recombinant DR3-Fc [2], 16.3 nM in the test with DcR3 and 89.8 nM with DcR3 (TNFRSF6B).

Turning to “TL1W129 (Y238K) (from UniProt O95150 1-251) (ligand)”, the concentration for a half-maximal effect (EC50) with DcR3 was 9 nM; with Recombinant DR3-Fc [3] it was 446 nM.

Take “TL1W104 (T185L) (from UniProt O95150 1-251) (ligand)”: the half-maximal effective concentration (EC50) is 19.3 nM with DcR3 and 49.4 nM in the test with Recombinant DR3-Fc [3].

Take “TL1W41 (E120A) (from UniProt O95150 1-251) (ligand)”: the concentration for a half-maximal effect (EC50) with DcR3 was found to be 32.6 nM; with Recombinant DR3-Fc [3], 100 nM.

In the case of “TL1W30 (N112E) (from UniProt O95150 1-251) (ligand)”, the concentration for a half-maximal effect (EC50) was found to be 4.7 nM with DcR3 and 16.4 nM in the test with Recombinant DR3-Fc [3].

As to “TL1W42 (F114A) (from UniProt O95150 1-251) (ligand)”, the EC50 in the test with DcR3 was found to be 11.4 nM; with Recombinant DR3-Fc [3] it was 77.7 nM.

With “TL1W98 (K173R) (from UniProt O95150 1-251) (ligand)”, the half-maximal effective concentration (EC50) worked out at 27.8 nM in the test with DcR3 and 2050 nM with Recombinant DR3-Fc [3].
